Data as given in publication PMC2966416.

How the values were obtained:
[1] = molecular target: NCenH3^Cse4-lacI (Saccharomyces cerevisiae)
[2] = molecular target: NCenH3^CenpA-lacI (human)

silencing of the white-reporter (eye pigmentation) in S9.2 flies on tethering of the lacI fusion: share of lines with strong silencing [1]: 75 % of lines | silencing of the white-reporter (eye pigmentation) in S9.2 flies on tethering of the lacI fusion: share of lines with significant silencing [2]: 50 % of lines
Substance: BubR1 (natural protein)
